Test results taken from PMC4620744.

Tests used:
[1] = biological target: H2A-H2B^30-130 (S. cerevisiae) (UniProt P04911); assay: ITC
[2] = biological target: full-length H2A-H2B (S. cerevisiae) (UniProt P04911); assay: fluorescence polarisation
[3] = biological target: full-length FACT (Spt16-Pob3 heterodimer) (S. cerevisiae) (UniProt P32558); assay: native gel or EMSA
[4] = biological target: Fluorescein-Spt16 MBD (Spt16^965-990) (S. cerevisiae) (UniProt P32558); assay: fluorescence polarisation
[5] = biological target: full-length FACT (Spt16-Pob3 heterodimer) (S. cerevisiae) (UniProt P32558); assay: ITC
[6] = biological target: H2A-H2B^30-130 bearing H2B M62A (S. cerevisiae) (UniProt P04911); assay: ITC
[7] = biological target: H2A-H2B^30-130 bearing H2B Y45A (S. cerevisiae) (UniProt P04911); assay: ITC
[8] = biological target: H2A-H2B^30-130 bearing H2B Y45A and M62A (S. cerevisiae) (UniProt P04911); assay: ITC
[9] = biological target: full-length H2A-H2B (S. cerevisiae) (UniProt P04911); assay: ITC

Substance: Pob3-MBD DNDAD517-521AAAAA (from UniProt Q04636 505-529) (peptide)
- fold decrease in binding against the unmutated peptide [1]: 17 fold

Substance: Pob3-MBD F512A (from UniProt Q04636 505-529) (peptide)
- fold decrease in binding against the unmutated peptide [1]: > 100 fold

Substance: Spt16-MBD SEDD975-978AAAA (from UniProt P32558 965-990) (peptide)
- fold decrease in affinity against the unmutated peptide [1]: 20 fold

Substance: Spt16-MBD SEEE965-968AAAA (from UniProt P32558 965-990) (peptide)
- fold decrease in affinity against the unmutated peptide [1]: 12 fold

Substance: Pob3-MBD DED509-511AAA (from UniProt Q04636 505-529) (peptide)
- fold decrease in binding against the unmutated peptide [1]: 38 fold

Substance: Spt16-MBD (Spt16^965-990) (from UniProt P32558 965-990) (peptide)
- IC50 [2]: 21.1 µM
- Ki [2]: 2.3 µM

Substance: full-length H2A-H2B (from UniProt P04911 1-132; P02293 1-131) (complex)
- apparent KD of one of two EMSA binding events [3]: 0.1 µM
- apparent KD of the other of two EMSA binding events [3]: 0.15 µM
- stoichiometry N [3]: 2
- Kd [4]: 2.3 µM
- KD of one of two independent binding sites [5]: 0.34 µM
- KD of the other of two independent binding sites [5]: 1.62 µM
- stoichiometry N [5]: 2

Substance: Spt16^958-990 (from UniProt P32558 958-990) (peptide)
- fold decrease in binding against H2A-H2B^30-130 [6]: 12 fold
- fold decrease in binding against H2A-H2B^30-130 [7]: 25 fold
- fold decrease in binding against H2A-H2B^30-130 [8]: 42 fold

Substance: Pob3-MBD (Pob3^505-529) (from UniProt Q04636 505-529) (peptide)
- IC50 [2]: 15.7 µM
- Ki [2]: 1.3 µM
- fold decrease in affinity against H2A-H2B^30-130 [6]: 9 fold
- fold decrease in affinity against H2A-H2B^30-130 [7]: 12 fold
- fold decrease in affinity against H2A-H2B^30-130 [8]: 41 fold

Substance: Spt16-MBD Y972A (from UniProt P32558 965-990) (peptide)
- fold decrease in binding against the unmutated peptide [1]: 48 fold

Substance: Spt16-MBD DES981-983AAA (from UniProt P32558 965-990) (peptide)
- fold decrease in affinity against the unmutated peptide [1]: 10 fold

Substance: Spt16 E968A (from UniProt P32558 965-990) (peptide)
- Kd [1]: 5 µM

Substance: Spt16-C (domain or fragment)
- Kd [9]: 0.8 µM
- stoichiometry N [9]: 1

Substance: Spt16-MBD EDEE987-990AAAA (from UniProt P32558 965-990) (peptide)
- fold decrease in affinity against the unmutated peptide [1]: 15 fold

Substance: Pob3 D509A (from UniProt Q04636 505-529) (peptide)
- Kd [1]: 35 µM
